# Earlier results as cited in patent publication US11147882B2, “Method for preserving and stabilizing proteins for formulations of sanitary, pharmaceutical and cosmetic products” (SANI-RED, S.L., priority 2013, dated 2021).
substance,measurement,setting,value
"EGF: epidermal growth factor, first polypeptide isolated and characterized as a growth factor; rhEGF is the recombinant human form",half-life of rhEGF at 25° C.,"25° C., based on the Arrhenius equation (Yang et al. 2005)",6.93 h
same,half-life at 37 C,"37 °C, pH 7.2",3.47 h
same,"half-life (mean life, useful life) of EGF","EGF normally, published studies",7 h
